Patent US20190016771A1 (Hoffmann-La Roche, published 2019)

Key:
[1] = target: T1, human OX40 (CD134) on the cell surface (human, UniProt P43489 29-277); assay: flow cytometry on activated human CD4+ T cells (OX40 positive); activated OX40 positive CD4+ T cells
T1 construct: whole, on cells; also called hOx40
T1 sequence (looked up): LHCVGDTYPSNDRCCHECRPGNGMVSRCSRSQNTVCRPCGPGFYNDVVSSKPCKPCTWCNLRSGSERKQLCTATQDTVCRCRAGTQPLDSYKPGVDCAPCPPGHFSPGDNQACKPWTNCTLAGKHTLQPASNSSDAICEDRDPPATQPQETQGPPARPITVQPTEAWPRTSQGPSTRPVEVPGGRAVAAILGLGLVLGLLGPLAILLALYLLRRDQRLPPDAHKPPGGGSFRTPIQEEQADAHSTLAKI
Description: (§1) PBMCs were used directly after isolation (binding on resting human PBMCs) or they were stimulated to receive a strong human Ox40 expression on the cell surface of T cells (binding on activated human PBMCs). Therefore naïve PBMCs were cultured for three days in T cell medium supplied with 200 U/mL Proleukin (Novartis) and […] PHA-L (Sigma-Aldrich, L2769-10) in 6-well tissue culture plate at 37° C. and 5% CO₂.
(§2) Cells were stained for 120 minutes at 4° C. in the dark in 50 μL/well 4° C. cold FACS buffer containing titrated anti-Ox40 antibody constructs. After three times washing with excess FACS buffer, cells were stained for 1 h at 4° C. in the dark in 25 μL/well 4° C. cold FACS buffer containing a mixture of fluorescently labeled anti-human CD4 (clone OKT4, mouse IgG1 k, BioLegend, Cat.-No. 317428), anti-human CD8 (clone RPa-T8, mouse IgG1k, BD Pharmingen, Cat.-No. 555368) and Fluorescein isothiocyanate (FITC)-conjugated AffiniPure anti-human IgG F(ab′)2-fragment-specific goat IgG F(ab′)₂ fragment (Jackson ImmunoResearch, Cat.-No. 109-096-097). Plates were finally resuspended in 90 μL/well FACS-buffer containing 0.2 μg/mL DAPI (Santa Cruz Biotec, Cat. No. Sc-3598) and acquired the same day using 5-laser LSR-Fortessa (BD Bioscience with DIVA software).

[2] = target: T1, human OX40 (CD134) on the cell surface; assay: flow cytometry on activated human CD8+ T cells (OX40 positive); activated OX40 positive CD8+ T cells
Description: as §1, §2

[3] = target: T2, human fibroblast activation protein (FAP) on the cell surface (human, UniProt Q12884 1-760); assay: flow cytometry on WM-266-4 cells, FITC anti-human IgG F(ab')2 detection
T2 construct: also called huFAP; NIH/3T3-huFAP clone 39 cells
T2 sequence: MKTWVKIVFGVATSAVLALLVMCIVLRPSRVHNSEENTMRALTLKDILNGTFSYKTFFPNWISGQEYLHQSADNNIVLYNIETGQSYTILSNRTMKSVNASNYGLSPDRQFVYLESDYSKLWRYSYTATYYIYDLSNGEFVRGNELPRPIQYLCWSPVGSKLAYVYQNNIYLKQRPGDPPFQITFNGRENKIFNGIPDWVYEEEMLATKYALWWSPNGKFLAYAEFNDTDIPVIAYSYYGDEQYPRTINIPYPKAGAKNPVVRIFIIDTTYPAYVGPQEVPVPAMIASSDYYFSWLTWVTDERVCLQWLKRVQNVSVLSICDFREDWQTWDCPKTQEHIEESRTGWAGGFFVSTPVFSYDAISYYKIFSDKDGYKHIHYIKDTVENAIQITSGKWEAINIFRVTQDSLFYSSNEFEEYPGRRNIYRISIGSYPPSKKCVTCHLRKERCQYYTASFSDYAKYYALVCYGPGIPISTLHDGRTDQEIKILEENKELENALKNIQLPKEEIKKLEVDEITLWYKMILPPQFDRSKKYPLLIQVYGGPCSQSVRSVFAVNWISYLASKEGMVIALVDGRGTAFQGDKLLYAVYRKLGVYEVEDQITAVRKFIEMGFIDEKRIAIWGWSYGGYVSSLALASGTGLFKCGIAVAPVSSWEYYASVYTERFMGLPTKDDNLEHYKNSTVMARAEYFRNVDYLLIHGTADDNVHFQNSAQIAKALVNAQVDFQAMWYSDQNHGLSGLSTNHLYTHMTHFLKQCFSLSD
Description: Cells were stained for 120 minutes at 4° C. in the dark in 50 μL/well 4° C. cold FACS buffer (DPBS (Gibco by Life Technologies, Cat. No. 14190 326) w/ BSA (0.1% v/w, Sigma-Aldrich, Cat. No. A9418) containing titrated huCMP trimeric OX40 ligand-containing antigen binding molecules. After three times washing with excess FACS buffer, cells were stained for 60 minutes at 4° C. in the dark in 25 μL/well 4° C. cold FACS buffer containing Fluorescein isothiocyanate (FITC)-conjugated AffiniPure anti-human IgG F(ab′)₂-fragment-specific goat IgG F(ab′)₂ fragment (Jackson ImmunoResearch, Cat.-No. 109-096-097).
Plates were finally resuspended in 90 μL/well FACS-buffer containing 0.2 μg/mL DAPI (Santa Cruz Biotec, Cat. No. Sc-3598) and acquired the same day using 5-laser LSR-Fortessa (BD Bioscience with DIVA software).

EC50 [1]: 10.2 nM
EC50 [2]: 3 nM
EC50 [3]: 17.3 nM
B1: FAP(28H1)-targeted human CMP trimeric OX40L-containing antigen binding molecule (other)
chain: EVQLLESGGGLVQPGGSLRLSCAASGFTFSSHAMSWVRQAPGKGLEWVSAIWASGEQYYADSVKGRFTISRDNSKNTLYLQMNSLRAEDTAVYYCAKGWLGNFDYWGQGTLVTVSSASTKGPSVFPLAPSSKSTSGGTAALGCLVKDYFPEPVTVSWNSGALTSGVHTFPAVLQSSGLYSLSSVVTVPSSSLGTQTYICNVNHKPSNTKVDKKVEPKSCDGGGGSGGGGSEEDPCACESLVKFQAKVEGLLQALTRKLEAVSKRLAILENTVVSGGGGSGGGGSGGGGSGGGGSQVSHRYPRIQSIKVQFTEYKKEKGFILTSQKEDEIMKVQDNSVIINCDGFYLISLKGYFSQEVDISLHYQKDEEPLFQLKKVRSVNSLMVASLTYKDKVYLNVTTDNTSLDDFHVNGGELILIHQNPGEFCVL
light: EIVLTQSPGTLSLSPGERATLSCRASQSVSRSYLAWYQQKPGQAPRLLIIGASTRATGIPDRFSGSGSGTDFTLTISRLEPEDFAVYYCQQGQVIPPTFGQGTKVEIKRTVAAPSVFIFPPSDEQLKSGTASVVCLLNNFYPREAKVQWKVDNALQSGNSQESVTEQDSKDSTYSLSSTLTLSKADYEKHKVYACEVTHQGLSSPVTKSFNRGEC
notes: also called trimeric FAP-huCMP-OX40L
